{
  "source": "paper PMC3445780",
  "molecular_target": "EphB4 receptor (UniProt P54760)",
  "sequence (P54760 16-987)": "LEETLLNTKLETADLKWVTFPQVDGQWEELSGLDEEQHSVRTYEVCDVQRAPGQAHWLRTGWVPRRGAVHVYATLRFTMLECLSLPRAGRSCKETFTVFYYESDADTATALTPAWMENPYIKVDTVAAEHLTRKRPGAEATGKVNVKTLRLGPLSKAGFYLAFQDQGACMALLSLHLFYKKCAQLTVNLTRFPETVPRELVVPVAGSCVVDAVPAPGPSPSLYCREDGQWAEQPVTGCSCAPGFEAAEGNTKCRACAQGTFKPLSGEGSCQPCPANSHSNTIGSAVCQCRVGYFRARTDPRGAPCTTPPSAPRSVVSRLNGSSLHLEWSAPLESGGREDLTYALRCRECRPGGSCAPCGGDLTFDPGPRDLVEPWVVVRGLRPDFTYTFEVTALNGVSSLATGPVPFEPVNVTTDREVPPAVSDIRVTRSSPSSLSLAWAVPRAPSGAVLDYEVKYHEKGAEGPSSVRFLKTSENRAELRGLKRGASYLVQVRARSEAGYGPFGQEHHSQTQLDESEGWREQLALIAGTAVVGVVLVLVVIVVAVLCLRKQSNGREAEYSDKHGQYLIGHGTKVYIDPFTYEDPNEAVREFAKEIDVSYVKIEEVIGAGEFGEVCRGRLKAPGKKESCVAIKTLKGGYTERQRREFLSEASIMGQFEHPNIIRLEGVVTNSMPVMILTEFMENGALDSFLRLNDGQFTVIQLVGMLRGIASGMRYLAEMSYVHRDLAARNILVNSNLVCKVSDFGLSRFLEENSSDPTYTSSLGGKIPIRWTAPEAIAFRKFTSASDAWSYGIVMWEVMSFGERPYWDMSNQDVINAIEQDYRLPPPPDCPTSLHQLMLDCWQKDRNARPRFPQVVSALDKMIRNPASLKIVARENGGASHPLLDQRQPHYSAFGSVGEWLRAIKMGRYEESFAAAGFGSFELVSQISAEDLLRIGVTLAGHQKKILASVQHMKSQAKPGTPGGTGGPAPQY",
  "assay": "SPR",
  "data": [
    {"substance": "cyclic peptide c(TNYL-RAW)", "values": [
      {"measurement": "Kd", "value": 4.4, "unit": "nM"}
    ]}
  ]
}
